Experimental data reported in the supplement of paper PMC10567573.
± gives the standard deviation.

Assay: protein stability index of a GFP-peptide fusion (GPS, HEK-293T) (PSI 1-6); higher = more stable
[1] = treatment: DMSO, c terminus: a fixed tail appended
[2] = treatment: MLN4924 1 uM, 8 h, c terminus: a fixed tail appended
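Note: 24-mer peptide tiles fused after GFP, lentivirally expressed, FACS-sorted into six equal bins by GFP/DsRed ratio, decoded by Illumina sequencing, PSI is the read-weighted mean bin number.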

Sequence	protein stability index [1]	protein stability index [2]	protein stability index (treatment: DMSO, c terminus: native)	protein stability index (treatment: MLN4924 1 uM, 8 h, c terminus: native)
GRYSVHNAGISFSVKKQGETVADV [MLH1]	3.79 ± 0.25	3.85 ± 0.37	–	–
GSGAASSSGEDKENDGFVFKMPWK [CDC25B]	4.025 ± 0.022	4.37 ± 0.34	–	–
GSLPWQGLKADTLKERYQKIGDTK [CSNK1G1]	4.05 ± 0.083	4.19 ± 0.29	–	–
GSPFGLEEPQWVPDKECRRCMQCD [ZFYVE21]	4.1 ± 0.29	4.07 ± 0.28	–	–
GSSIPWNHLPDPEIFRQRFRQFGY [ZNF24]	2.49 ± 0.25	2.66 ± 0.14	–	–
GTENGAIDAVPVDENLFTGEDLDE [ZC3H15]	5.7 ± 0.3	5.52 ± 0.44	–	–
GTIKKIIHQETVSKNGNGLKNTPR [PCMTD2]	3.68 ± 0.55	4.03 ± 0.4	–	–
GWRSLWLGWGPTALRDVPFSALYW [SLC25A39]	2.22 ± 0.41	2.99 ± 0.76	–	–
HADILAAVETRLSLLNMTFMKYVD [FBXO28]	2.84 ± 0.69	2.75 ± 0.65	–	–
HENETLASLKSEAESLKGKLEEER [GNB5]	5.29 ± 0.33	5.34 ± 0.33	–	–
HFFALKVMSIPDVIRLKQEQHVHN [PRKX]	2.25 ± 0.28	2.17 ± 0.1	–	–
HFKPHGFSSDKAKAGSSEWLAVDG [ATF4]	3.89 ± 0.18	3.91 ± 0.17	–	–
HGEEQRITIEPGTSYRLQGLKPNS [PTPRD]	4.4 ± 0.18	4.67 ± 0.29	–	–
HLALHAASSGDLTCGVCALELGST [PLAGL1]	3.01 ± 0.48	2.93 ± 0.24	–	–
HMEDPRRAGKMLMTLPLLRQTSTK [ESRRG]	3.63 ± 0.16	3.7 ± 0.28	–	–
HNDLWESWFVPDPAGIFKLNHHS [GLT8D2]	–	–	2.87 ± 0.15	2.9 ± 0.41
HNQVEAAWLEGRIRQEFDKLREFL [TRIM35]	3.5 ± 0.52	3.75 ± 0.48	–	–
HPDPAPFCADNPSELPPPMERTGG [DVL3]	3.41 ± 0.55	4.17 ± 0.49	–	–
HRQETVECLKKFNARRKLKGAILT [CAMK2B]	2.79 ± 0.24	2.98 ± 0.29	–	–
HSALGGTKKKKKTIVTDVFQGSMR [USP39]	4.02 ± 0.4	4.14 ± 0.058	–	–
HSLTPVSSDHLFLFGGFTTDKQPL [KLHDC2]	2.95 ± 0.46	3.21 ± 0.27	–	–
HSSELTEQKLRACLEGSINEHSAH [RPAIN]	4.55 ± 0.26	4.44 ± 0.12	–	–

Sequence	protein stability index [1]	protein stability index [2]	protein stability index (treatment: DMSO, c terminus: native)	protein stability index (treatment: MLN4924 1 uM, 8 h, c terminus: native)
HWKTWLAIKCSPSLHVDDRERMEL [RIPK4]	2.38 ± 0.26	2.53 ± 0.58	–	–
HWTSAPLTEASAHSHPPEIKDQGG [MAP2]	5.14 ± 0.14	5.18 ± 0.18	–	–
HYLIFDLVTGGELFEDIVAREYYS [CAMK2A]	2.71 ± 0.72	2.54 ± 0.66	–	–
ICFKEMLANSWNCLPKHLLHSVNQ [KLHDC2]	2.73 ± 0.43	2.63 ± 0.65	–	–
ICGIICIGPNVLMVHKRSHTGERP [IKZF1]	2.46 ± 0.28	2.02 ± 0.38	–	–
IDDLFAFVIKMPVMYRIGCLRDDV [CLPTM1]	3.07 ± 0.97	3.2 ± 0.74	–	–
IEKCTTPLSDDHDEKYGVPSLEEL [CRY1]	5.11 ± 0.25	5.14 ± 0.18	–	–
IEKFIREPSLKATMGLAGRARVKE [ALG2]	3.6 ± 0.18	3.62 ± 0.33	–	–
IERGASLEEVNDEGYTPLMEAARE [ANKRD17]	5.34 ± 0.23	5.06 ± 0.21	–	–
IFQIGVLGFGPTYVVLAYTLPPAS [SOAT1]	2.97 ± 0.27	3.23 ± 0.68	–	–
IGHFNTASGVGFILGPVVGGYLTE [MFSD9]	2.38 ± 0.53	2.31 ± 0.39	–	–
IHIIDFGLAKEYIDPETKKHIPYR [CSNK1G3]	2.1 ± 0.36	2.33 ± 0.17	–	–
IINTKKLSARDHQKLEREARICRL [CAMK2A]	3.19 ± 0.23	3.27 ± 0.25	–	–
ILDTDEYVLKYMESNAAQYSPEAL [EFHC1]	3.99 ± 0.31	3.96 ± 0.38	–	–
ILENTSKVPAPKDVLAHQVPNAKK [NOP53]	4.23 ± 0.27	4.43 ± 0.16	–	–
ILEVLRSSPMVQVDEKGEKVRPSH [LARP4]	3.61 ± 0.27	3.71 ± 0.12	–	–
ILFYCHFPDLLLTKRDSFLKRLYR [ALG2]	2.81 ± 0.6	2.18 ± 0.51	–	–
ILINNGSRIKGWWVFHHYVSTFLS [TMEM120A]	2.17 ± 0.64	2.38 ± 0.42	–	–
ILNPHVHVIGEDAACIAYIRLTQY [CAMK2B]	2.51 ± 0.63	2.31 ± 0.27	–	–
ILTLPEMMRMFSENLAHHLEIDSG [TRIM15]	2.44 ± 0.3	2.44 ± 0.31	–	–
INQSFTGAERKAALCELLEKETQI [IQUB]	4.38 ± 0.23	4.01 ± 0.19	–	–
INQVLLFLLIVTLCVILYKKVHKG [GLT8D2]	3.12 ± 0.29	3.04 ± 0.9	–	–

Sequence	protein stability index [1]	protein stability index [2]	protein stability index (treatment: DMSO, c terminus: native)	protein stability index (treatment: MLN4924 1 uM, 8 h, c terminus: native)
IPEGLNYSENAPFHLSLFQGWMNL [PLD5]	2.2 ± 0.55	1.91 ± 0.38	–	–
IPTVKPLKPRPEPPKKPSNWRRKH [ZC2HC1A]	4.2 ± 0.24	4.24 ± 0.11	–	–
IQKNKLKLTREQEELEEALEVERQ [MNAT1]	5.23 ± 0.31	5.24 ± 0.17	–	–
ISESGGLNWKMTLCLLVAWSIVGM [SLC6A17]	2.71 ± 0.28	2.83 ± 0.67	–	–
ISQQDPESDSQGQGNGLFYSSGPQ [ZC2HC1C]	4.83 ± 0.48	5.08 ± 0.19	–	–
IVGSQGAEGALEEVPLEVLRQRES [TBC1D10A]	5.17 ± 0.34	5.31 ± 0.26	–	–
IYGHVTLMRAQRNYMVQTEDQYIF [PTPRD]	2.61 ± 0.58	2.87 ± 1.1	–	–
KAENARLVVNIDNAKLASDDFRSK [KRT34]	4.62 ± 0.16	4.71 ± 0.14	–	–
KAFGVGVAYRSLGRFEQLGKTAAS [FSD1]	2.77 ± 0.3	2.69 ± 0.24	–	–
KAGRRMFPACRVSVTGLDPEARYL [TBX6]	2.36 ± 0.56	1.86 ± 0.2	–	–
KALEILRKDFSELRSAGVEQLMYI [FAM50A]	2.55 ± 0.31	2.38 ± 0.49	–	–
KAMAKLSKLASNGTPMGTFAPLWE [FCHO1]	2.23 ± 0.41	2.48 ± 0.12	–	–
KDFLTGMCLFLQSLRQKQPERLCS [GMPPB]	2.25 ± 0.44	2.23 ± 0.36	–	–
KDMSESQDEVPDEVENQFILRLPL [TAF7L]	4.41 ± 0.26	4.85 ± 0.15	–	–
KDRASPADLRTNHTLNNLVEKLLR [TRIM35]	2.44 ± 0.27	2.48 ± 0.13	–	–
KEACDQHGPDLYPKFKKWCDDYFF [CPOX]	2.31 ± 0.27	2.58 ± 0.32	–	–
KEDASEFQILKYLFQIDVYDFMNS [MIA2]	2.5 ± 0.65	2.76 ± 0.24	–	–
KEHPDVQLLEDAILIIQGVLSDIN [NET1]	2.49 ± 0.73	2.47 ± 0.23	–	–
KEKCVSLPDCCHGSELRDFPGRPM [DLC1]	3.82 ± 0.33	3.76 ± 0.4	–	–
KEMSKVWNDLRPKLSCLFAGPHST [SNX8]	2.63 ± 0.7	2.79 ± 0.59	–	–
KEQLSNDRETQEGKPPTAHLDRTS [ELOA2]	5.56 ± 0.32	5.59 ± 0.16	–	–
